{"source": "patent US7838495B2", "about": "“Compositions and methods of use of EPB1, and ErbB3 binding protein” (University of Maryland, Baltimore, priority 2007, dated 2010)", "molecules": {"B1": {"name": "EBP1: ErbB3 binding protein (SEQ ID NO: 2), AR corepressor, here ectopically expressed in cancer cells by stable transfection of an expression plasmid (protein, listed as Homo sapiens)", "chain": "MSGEDEQQEQTIAEDLVVTKYKMGGDIANRVLRSLVEASSSGVSVLSLCEKGDAMIMEETGKIFKKEKEMKKGIAFPTSISVNNCVCHFSPLKSDQDYILKEGDLVKIDLGVHVDGFIANVAHTFVVDVAQGTQVTGRKADVIKAAHLCAEAALRLVKPGNQNTQVTEAWNKVAHSFNCTPIEGMLSHQLKQHVIDGEKTIIQNPTDQQKKDHEKAEFEVHEVYAVDVLVSSGEGKAKDAGQRTTIYKRDPSKQYGLKMKTSRAFFSEVERRFDAMPFTLRAFEDEKKARMGVVECAKHELLQPFNVLYEKEGEFVAQFKFTVLLMPNGPMRITSGPFEPDLYKSEMEVQDAELKALLQSSASRKTQKKKKKKASKTAENATSGETLEENEAGD", "modifications": "FLAG tag"}}, "key": {"[1]": {"test_system": "AR-regulated genes", "experiment": "Validation by real-time RT-PCR, Western blot and ELISA in LNCaP EPB1 transfectants", "format": "cell-based, human", "description": "Real-Time Quantitative Reverse-Transcription PCR: The method of […] et al. (Nakanishi et al., 2003, Quantitative Analysis of Breast Cancer Resistance Protein and Cellular Resistance to Flavopiridol in Acute Leukemia Patients, Clin. Cancer Res., 9: 3320-3328) was used as previously described. […] Real-time quantitative RT-PCR was then performed on the LightCycler (Roche, Indianapolis, Ind.) platform to determine the relative mRNA levels of EPB1, AR, kallikrein-2 and POV-1. The following forward and reverse primers were selected using Primer Express software and synthesized by Core Laboratory of University of Maryland School of Medicine: EPB1, sense: [NT] ID NO: 4) and antisense: [NT] ID NO: 5), sense: [NT] ID NO: 6) and antisense: [NT] ID NO: 7), Kallikrein-2, sense: [NT] ID NO: 8) and antisense: [NT] ID NO: 9), POV-1, sense: [NT] ID NO: 10) and antisense: [NT] ID NO: 11), Actin, sense: [NT] ID NO: 12) and antisense […] ID NO: 13). […] Target mRNA values were normalized using actin mRNA as an internal control. The relative quantitation of gene expression was performed using the comparative ΔΔ Ct (threshold method) using β-actin as an internal control ([…] et al., 2002, The Nonsteroidal Anti-Inflammatory Drug Sulindac Causes Down-Regulation of Signal Transducer and Activator of Transcription 3 in Human Oral Squamous Cell Carcinoma Cells, Cancer Research, 62:1004-1007). Western Blot Analysis: Briefly, total cell extracts were prepared by direct lysis of cells with buffer containing 50 mM Tris-HCl (pH 7.4), 1 mM EDTA, 250 mM NaCl, 1% Triton® X-100, 0.5 mM dithiothreitol (DTT) and 1 mM phenylmethylsulfonyl (PMSF). Protein concentrations were measured using a detergent compatible kit (BioRad, Hercules, Calif.). Proteins were resolved by SDS-PAGE and analyzed by Western blotting as described (Xia et al., 2001, Analysis of the Expression Pattern of EPB1, an ErbB-3-Binding Protein, Biochem. Biophys. Res. Commun., 289:240-244). The AR antibody was from Santa Cruz Biotechnology (Santa Cruz, Calif.), the EPB1 antibody from Upstate (Lake Placid, N.Y.), the polyclonal antibody to actin from Sigma (St. Louis, Mo.), and the POV-1 antibody was a gift. Measurement of PSA levels: Serum PSA levels were determined using a PSA ELISA kit from DSL, Inc (Webster, Tex.). […] Following a 1 h incubation and extensive washing of the plate, the wells were treated for 30 min with a second anti-PSA antibody labeled with horseradish peroxidase. After washing, the wells were treated with a tetramethylbendizine substrate for 10 min, and absorbance was read at 450 nm. The results of the microarray analysis were validated using real-time quantitative reverse-transcription PCR, Western blot, and ELISA methods. […] PSA secretion in the conditioned media of EPB1 and vector control cells was assessed by ELISA."}, "[2]": {"test_system": "C81 cells", "experiment": "Growth of C81 EBP1 transfectants (monolayer, soft agar, androgen-depleted media)", "format": "cell-based, human", "description": "FIG. 4A-C. EBP1 restoration ameliorates the hormone refractory phenotype A. (Left panel) Growth in monolayer culture. Equal numbers (5×10^4) of vector or EBP1 stably transfected cells were plated at Day 0 in complete media and viable cell numbers determined at the indicated times. Each point represents mean±S.E. of 3 wells. Representative of 3 experiments (Right panel). Colony growth in soft agar. C81 cells stably transfected with either pcDNA or EBP1 were plated in soft agar at the cell densities indicated and colony numbers assessed at Day 10. Each point represents mean±S.E. of 3 dishes. Data is representative of 3 experiments. B. (Left Panel) Response of EBP1 and vector transfected C81 cells to dihydrotestosterone (DHT). EBP1 and vector control C81 transfected cells and early passage LNCaP cells were plated in complete media at 5×10^3 cells/well in 96 well plates for one day. The next day, cells were switched to steroid reduced medium for two days as described in the Materials and Methods. DHT was then added at the indicated concentrations. Cells were refed media every 3 days. Total cell numbers were determined seven days later by MTT assays. Each point represents mean±S.E. of 6 wells. Data is representative of two experiments. (Right Panel) Effect of Bicalutamide on DHT stimulated growth. Cells were plated as described in the Materials and Methods. After 2 days in steroid reduced medium, cells were fed with fresh steroid reduced medium with or without 10 μM bicalutamide (Casodex) in the presence or absence of 10 nM DHT. Total cell numbers were assessed 7 days later by MTT assay. Cells were refed media every 3 days. The data shown are mean±S.E. of six wells. Similar results were found in 2 independent experiments. C. EBP1 expression sensitizes C81 cells to chemotherapeutic drugs. […] Total cell numbers were determined by MTT assays 5 days later. […]\nWestern Blot Analysis. […] For soft agar growth assays, increasing concentrations of cells (as indicated) were plated in 35 mm Petri dishes in 0.3% agar in complete media and colonies were counted after 10 days of incubation (21). […]"}}, "note": "Entries after “also recorded” stand apart in the source; their conditions may differ."}
{"molecule": "B1", "values": [{"measurement": "POV-1 mRNA decrease", "setting": "[1]; LNCaP EPB1 transfectants", "value": "about two-fold"}, {"measurement": "POV-1 protein decrease", "setting": "[1]; LNCaP EPB1 transfectants", "value": "about two-fold"}, {"measurement": "kallikrein-2 mRNA expression decrease", "setting": "[1]; LNCaP EPB1 transfectants", "value": "approximately 40%"}, {"measurement": "AR protein decrease", "setting": "[1]; LNCaP EPB1 transfectants, Western blot", "value": "more than five-fold"}, {"measurement": "AR mRNA down-regulation", "setting": "[1]; LNCaP EPB1 transfectants, real-time PCR", "value": "more than 2 fold"}, {"measurement": "secreted PSA protein downregulation", "setting": "[1]; conditioned media of LNCaP EPB1 transfectants vs controls, ELISA", "value": 10, "unit": "fold"}, {"measurement": "decrease of colony growth in soft agar", "setting": "[2]; C81, highest cell concentration tested", "value": "approximately 50%"}, {"measurement": "growth rate in complete media", "setting": "[2]; C81 EBP1 transfectants vs vector control, p<0.05", "value": "significantly decreased"}, {"measurement": "growth in the absence of androgens relative to vector controls", "setting": "[2]; C81 EBP1 transfectants, androgen depleted media", "value": "reduced to one third; also recorded: reduced by ⅔"}]}
